Test results reported in the RNAGym collection of RNA variant scans (doi:10.7554/elife.80360).

B1: CPEB3 Ribozyme (parent)
chain: GGGGGCCACAGCAGAAGCGUUCACGUCGCGGCCCCUGUCAGAUUCUGGUGAAUCUGCGAAUUCUGCUGU

Variants of: B1
Assay: self-cleavage, relative activity (ratio to wild type); higher = more cleavage; co-transcriptional

Variant	self-cleavage
GGGGGCCACAGCAGAAGCGUUCACGUCGCGGCCCCUGUCAGAUUCUGGUGAAGCUGCGAAUUCUGCUGU	0.927
GGGGGCCACAGCAGAAGCGUUCACGUCGCGGCCCCUGUCAGAUUCUGGUGAAGCUGAGAAUUCUGCUGU	0.327
GGGGGCCACAGCAGAAGCGUUCACGUCGCGGCCCCUGUCAGAUUCUGGUGAAGCUGUGAAUUCUGCUGU	0.311
GGGGGCCACAGCAGAAGCGUUCACGUCGCGGCCCCUGUCAGAUUCUGGUGAAGCUGCGACUUCUGCUGU	0.308
GGGGGCCACAGCAGAAGCGUUCACGUCGCGGCCCCUGUCAGAUUCUGGUGAAGCUGCGAGUUCUGCUGU	0.793
GGGGGCCACAGCAGAAGCGUUCACGUCGCGGCCCCUGUCAGAUUCUGGUGAAGCUGCGAUUUCUGCUGU	0.301
GGGGGCCACAGCAGAAGCGUUCACGUCGCGGCCCCUGUCAGAUUCUGGUGAACCUACGAAUUCUGCUGU	0.539
GGGGGCCACAGCAGAAGCGUUCACGUCGCGGCCCCUGUCAGAUUCUGGUGAACCUCCGAAUUCUGCUGU	0.39
GGGGGCCACAGCAGAAGCGUUCACGUCGCGGCCCCUGUCAGAUUCUGGUGAAGCUACGAAUUCUGCUGU	0.553
GGGGGCCACAGCAGAAGCGUUCACGUCGCGGCCCCUGUCAGAUUCUGGUGAAGCUUCGAAUUCUGCUGU	0.401
GGGGGCCACAGCAGAAGCGUUCACGUCGCGGCCCCUGUCAGAUUCUGGUGAAGCUCCGAAUUCUGCUGU	0.331
GGGGGCCACAGCAGAAGCGUUCACGUCGCGGCCCCUGUCAGAUUCUGGUGAACCUGCGAAUGCUGCUGU	0.384
GGGGGCCACAGCAGAAGCGUUCACGUCGCGGCCCCUGUCAGAUUCUGGUGAACCUGCGAAUACUGCUGU	0.549
GGGGGCCACAGCAGAAGCGUUCACGUCGCGGCCCCUGUCAGAUUCUGGUGAAGCUGCGCAUUCUGCUGU	0.422
GGGGGCCACAGCAGAAGCGUUCACGUCGCGGCCCCUGUCAGAUUCUGGUGAAGCUGCGGAUUCUGCUGU	0.894
GGGGGCCACAGCAGAAGCGUUCACGUCGCGGCCCCUGUCAGAUUCUGGUGAACCUGCGAAUUCUGCUGG	0.993
GGGGGCCACAGCAGAAGCGUUCACGUCGCGGCCCCUGUCAGAUUCUGGUGAACCUGCGAAUUCUGCUGC	1.05
GGGGGCCACAGCAGAAGCGUUCACGUCGCGGCCCCUGUCAGAUUCUGGUGAAGCUGCGAAUUCUGAUGU	0.629
GGGGGCCACAGCAGAAGCGUUCACGUCGCGGCCCCUGUCAGAUUCUGGUGAAGCUGCGAAUUCUCCUGU	0.704
GGGGGCCACAGCAGAAGCGUUCACGUCGCGGCCCCUGUCAGAUUCUGGUGAAGCUGCGAAUUCUUCUGU	0.606

Variant	self-cleavage
GGGGGCCACAGCAGAAGCGUUCACGUCGCGGCCCCUGUCAGAUUCUGGUGAAGCUGCGAAUUCUACUGU	0.707
GGGGGCCACAGCAGAAGCGUUCACGUCGCGGCCCCUGUCAGAUUCUGGUGAACCUGCGAAUUCUGCUUU	0.986
GGGGGCCACAGCAGAAGCGUUCACGUCGCGGCCCCUGUCAGAUUCUGGUGAACCUGCGAAUUCUGCUCU	1.02
GGGGGCCACAGCAGAAGCGUUCACGUCGCGGCCCCUGUCAGAUUCUGGUGAACCUGCGAAUUCUGCUAU	0.977
GGGGGCCACAGCAGAAGCGUUCACGUCGCGGCCCCUGUCAGAUUCUGGUGAACCUGCGAAUUCUCCUGU	0.407
GGGGGCCACAGCAGAAGCGUUCACGUCGCGGCCCCUGUCAGAUUCUGGUGAACCUGCGAAUUCUACUGU	0.472
GGGGGCCACAGCAGAAGCGUUCACGUCGCGGCCCCUGUCAGAUUCUGGUGAACCUGCGAAUUCCGCUGU	0.536
GGGGGCCACAGCAGAAGCGUUCACGUCGCGGCCCCUGUCAGAUUCUGGUGAACCUGCGAAUUCAGCUGU	0.525
GGGGGCCACAGCAGAAGCGUUCACGUCGCGGCCCCUGUCAGAUUCUGGUGAACCUGCGAAUUCGGCUGU	0.535
GGGGGCCACAGCAGAAGCGUUCACGUCGCGGCCCCUGUCAGAUUCUGGUGAAGGUGCGAAUUCUGCUGU	0.673
GGGGGCCACAGCAGAAGCGUUCACGUCGCGGCCCCUGUCAGAUUCUGGUGAAGUUGCGAAUUCUGCUGU	0.815
GGGGGCCACAGCAGAAGCGUUCACGUCGCGGCCCCUGUCAGAUUCUGGUGAACCUGCGAAGUCUGCUGU	0.58
GGGGGCCACAGCAGAAGCGUUCACGUCGCGGCCCCUGUCAGAUUCUGGUGAACCUGCCAAUUCUGCUGU	0.94
GGGGGCCACAGCAGAAGCGUUCACGUCGCGGCCCCUGUCAGAUUCUGGUGAACCUGCAAAUUCUGCUGU	0.85
GGGGGCCACAGCAGAAGCGUUCACGUCGCGGCCCCUGUCAGAUUCUGGUGAAGCUGCCAAUUCUGCUGU	0.847
GGGGGCCACAGCAGAAGCGUUCACGUCGCGGCCCCUGUCAGAUUCUGGUGAAGCUGCUAAUUCUGCUGU	0.939
GGGGGCCACAGCAGAAGCGUUCACGUCGCGGCCCCUGUCAGAUUCUGGUGAACCCGCGAAUUCUGCUGU	0.409
GGGGGCCACAGCAGAAGCGUUCACGUCGCGGCCCCUGUCAGAUUCUGGUGAACCGGCGAAUUCUGCUGU	0.303
GGGGGCCACAGCAGAAGCGUUCACGUCGCGGCCCCUGUCAGAUUCUGGUGAACCAGCGAAUUCUGCUGU	0.364
